Assays:
[1] = target: HLA-A*24:02; assay: IEDB peptide-MHC binding, purified MHC/competitive/fluorescence; filed as Kd, often an IC50 or EC50 that approximates it; ≥ and ≤ were set here for values at or beyond the usual limits of such assays
[2] = target: HLA-B*39:01; assay: IEDB peptide-MHC binding, purified MHC/direct/fluorescence; filed as Kd, often an IC50 or EC50 that approximates it; ≥ and ≤ were set here for values at or beyond the usual limits of such assays; details: source organism: Bacillus anthracis str. Sterne
[3] = target: HLA-B*46:01; assay: as above; details: source organism: Bacillus anthracis str. Sterne
[4] = target: HLA-B*18:01; assay: as above; details: source organism: Bacillus anthracis str. Sterne
[5] = target: HLA-B*57:01; assay: as above
[6] = target: HLA-A*02:01; assay: as above
[7] = target: HLA-B*27:03; assay: as above; details: source organism: Bacillus anthracis str. Sterne
[8] = target: HLA-A*26:01; assay: as above; details: source organism: Bacillus anthracis str. Sterne
[9] = target: HLA-B*15:01; assay: as above
[10] = target: HLA-B*83:01; assay: IEDB peptide-MHC binding, purified MHC/competitive/fluorescence; filed as Kd, often an IC50 or EC50 that approximates it; ≥ and ≤ were set here for values at or beyond the usual limits of such assays; details: source organism: Bacillus anthracis str. A0488
[11] = target: HLA-C*14:02; assay: as above; details: source organism: Bacillus anthracis str. A0488
[12] = target: HLA-B*45:06; assay: as above; details: source organism: Bacillus anthracis str. A0488
[13] = target: HLA-A*32:15; assay: as above; details: source organism: Bacillus anthracis str. A0488
[14] = target: HLA-B*15:42; assay: as above; details: source organism: Bacillus anthracis str. A0488
[15] = target: HLA-B*40:01; assay: IEDB peptide-MHC binding, purified MHC/direct/fluorescence; filed as Kd, often an IC50 or EC50 that approximates it; ≥ and ≤ were set here for values at or beyond the usual limits of such assays; details: source organism: Vibrio parahaemolyticus
[16] = target: HLA-B*27:05; assay: as above
[17] = target: HLA-B*07:02; assay: as above
[18] = target: HLA-B*08:03; assay: as above; details: source organism: Vibrio parahaemolyticus RIMD 2210633
[19] = target: HLA-A*31:01; assay: as above
[20] = target: HLA-B*08:02; assay: as above
[21] = target: HLA-B*58:01; assay: as above
[22] = target: HLA-A*11:01; assay: as above
[23] = target: HLA-B*48:01; assay: as above; details: source organism: Vibrio parahaemolyticus
[24] = target: HLA-A*01:01; assay: as above
[25] = target: HLA-B*08:01; assay: as above
[26] = target: HLA-A*68:02; assay: as above; details: source organism: Vibrio parahaemolyticus
[27] = target: HLA-A*03:01; assay: as above
[28] = target: HLA-A*26:03; assay: IEDB peptide-MHC binding, purified MHC/competitive/fluorescence; filed as Kd, often an IC50 or EC50 that approximates it; ≥ and ≤ were set here for values at or beyond the usual limits of such assays; details: source organism: Vibrio parahaemolyticus RIMD 2210633
[29] = target: HLA-B*18:01; assay: as above
[30] = target: HLA-A*26:02; assay: as above; details: source organism: Vibrio parahaemolyticus RIMD 2210633
[31] = target: HLA-B*15:17; assay: as above; details: source organism: Vibrio parahaemolyticus RIMD 2210633
[32] = target: HLA-B*35:01; assay: as above; details: source organism: Vibrio parahaemolyticus RIMD 2210633
[33] = target: HLA-A*26:01; assay: as above; details: source organism: Vibrio parahaemolyticus RIMD 2210633
[34] = target: HLA-B*15:01; assay: as above; details: source organism: Vibrio parahaemolyticus RIMD 2210633
[35] = target: HLA-A*26:03; assay: IEDB peptide-MHC binding, purified MHC/direct/fluorescence; filed as Kd, often an IC50 or EC50 that approximates it; ≥ and ≤ were set here for values at or beyond the usual limits of such assays; details: source organism: Influenza A virus (A/Taiwan/2/2006(H1N1))
[36] = target: HLA-A*24:02; assay: as above; details: source organism: Influenza A virus (A/Hong Kong/213/2003(H5N1))
[37] = target: HLA-A*24:03; assay: as above; details: source organism: Influenza A virus (A/Hong Kong/213/2003(H5N1))
[38] = target: HLA-A*02:11; assay: as above; details: source organism: Influenza A virus (A/Taiwan/2/2006(H1N1))
[39] = target: HLA-A*02:03; assay: as above; details: source organism: Influenza A virus (A/Taiwan/2/2006(H1N1))
[40] = target: HLA-A*26:02; assay: as above; details: source organism: Influenza A virus (A/Taiwan/2/2006(H1N1))
[41] = target: HLA-A*23:01; assay: as above; details: source organism: Influenza A virus (A/Hong Kong/213/2003(H5N1))
[42] = target: HLA-B*15:17; assay: as above; details: source organism: Influenza A virus (A/Hong Kong/213/2003(H5N1))
[43] = target: HLA-A*02:12; assay: as above; details: source organism: Influenza A virus (A/Taiwan/2/2006(H1N1))
[44] = target: HLA-B*15:09; assay: as above; details: source organism: Influenza A virus (A/Taiwan/2/2006(H1N1))
[45] = target: HLA-A*02:19; assay: as above; details: source organism: Influenza A virus (A/Taiwan/2/2006(H1N1))
[46] = target: HLA-B*39:01; assay: IEDB peptide-MHC binding, purified MHC/competitive/fluorescence; filed as Kd, often an IC50 or EC50 that approximates it; ≥ and ≤ were set here for values at or beyond the usual limits of such assays; details: source organism: Influenza A virus (A/X-31(H3N2))
[47] = target: HLA-A*02:06; assay: as above; details: source organism: Influenza A virus (A/X-31(H3N2))
[48] = target: HLA-A*68:02; assay: as above; details: source organism: Influenza A virus (A/X-31(H3N2))
[49] = target: HLA-A*24:02; assay: IEDB peptide-MHC binding, purified MHC/competitive/fluorescence; ≥ and ≤ were set here for values at or beyond the usual limits of such assays; details: source organism: West Nile virus
[50] = source organism: Influenza A virus (A/X-31(H3N2))
[51] = source organism: Bacillus anthracis str. Sterne
[52] = source organism: Vibrio parahaemolyticus
[53] = source organism: Vibrio parahaemolyticus RIMD 2210633
[54] = source organism: Influenza A virus (A/Hong Kong/213/2003(H5N1))
[55] = source organism: Influenza A virus (A/Taiwan/2/2006(H1N1))

KTHIHIFSF gave a Kd [1, 50] of 85.5 nM.

In the case of TTYVYTLPV, the Kd [2] is reported as ≥ 20000 nM, the Kd [3] is reported as ≥ 20000 nM and the Kd [4] is reported as ≥ 20000 nM. The Kd [5, 51] was ≥ 20000 nM, the Kd [6, 51] was 90 nM and the Kd [7] was ≥ 20000 nM. The Kd [8] was ≥ 20000 nM, the Kd [9, 51] was ≥ 20000 nM and the Kd [10] was ≥ 5000 nM. For the same sequence, the Kd [11] was 3.5 nM, the Kd [12] was ≥ 5000 nM and the Kd [13] was 370 nM. The Kd [14] was ≥ 5000 nM.

ILRPLGIEY was tested, and the Kd [15] was ≥ 20000 nM, the Kd [16, 52] was ≥ 20000 nM and the Kd [17, 52] was ≥ 20000 nM. The Kd [18] was ≥ 20000 nM, the Kd [5, 52] was 1530 nM and the Kd [19, 52] was ≥ 20000 nM. The Kd [20, 53] was ≥ 20000 nM, the Kd [21, 52] was ≥ 20000 nM and the Kd [6, 52] was ≥ 20000 nM. For the same sequence, the Kd [22, 52] was ≥ 20000 nM, the Kd [23] was ≥ 20000 nM and the Kd [24, 52] was 2020 nM. For the same sequence, the Kd [25, 53] was ≥ 20000 nM, the Kd [26] was ≥ 20000 nM and the Kd [27, 52] was 116 nM. For the same sequence, the Kd [28] was ≥ 20000 nM, the Kd [29, 53] was 159 nM and the Kd [30] was 403 nM. The Kd [31] was 48.8 nM, the Kd [32] was 226 nM and the Kd [33] was 478 nM. The Kd [34] was 282 nM.

With CFMYSDFHF the Kd [35] was ≥ 20000 nM, the Kd [36] was 21 nM and the Kd [37] was 7.5 nM. For the same sequence, the Kd [16, 54] was ≥ 20000 nM, the Kd [17, 54] was ≥ 20000 nM and the Kd [5, 54] was ≥ 20000 nM. The Kd [38] was 126 nM, the Kd [39] was 307 nM and the Kd [40] was ≥ 20000 nM. For the same sequence, the Kd [41] was ≤ 1 nM, the Kd [19, 54] was ≥ 20000 nM and the Kd [20, 55] was ≥ 20000 nM. The Kd [21, 54] was 74.5 nM, the Kd [6, 54] was 141 nM and the Kd [22, 54] was ≥ 20000 nM. For the same sequence, the Kd [42] was ≥ 20000 nM, the Kd [43] was 243 nM and the Kd [44] was ≥ 20000 nM. For the same sequence, the Kd [24, 54] was ≥ 20000 nM, the Kd [25, 55] was ≥ 20000 nM and the Kd [9, 54] was ≥ 20000 nM. For the same sequence, the Kd [27, 54] was ≥ 20000 nM, the Kd [45] was 268 nM and the Kd [46] was ≥ 20000 nM. It also gave a Kd [47] of 49.2 nM, a Kd [29, 50] of 1990 nM and a Kd [48] of 210 nM.

With RYLVKTESW the Kd ([1]; source organism: West Nile virus) was 0.4 nM and the IC50 [49] was 264 nM.
